# In patent US8334260B2, “sFRP and peptide motifs that interact with sFRP and methods of their use” (The United States of America as represented by the …, priority 2001, dated 2012):
# T1: RANKL (Homo sapiens, UniProt O14788)
# T1 construct: For ELISA assays, recombinant soluble RANKL and TRAIL, and antibodies directed against these proteins were obtained from PeproTech; purchased PeproTech (Rocky Hill, N.J.)
# T1 sequence (O14788 140-317): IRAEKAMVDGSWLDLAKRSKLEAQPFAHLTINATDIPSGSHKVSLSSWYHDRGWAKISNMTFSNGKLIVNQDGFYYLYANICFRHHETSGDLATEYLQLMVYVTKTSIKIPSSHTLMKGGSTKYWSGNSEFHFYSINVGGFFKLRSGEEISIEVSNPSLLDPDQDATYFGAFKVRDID
# T2: RANKL (Mus musculus, UniProt O35235)
# T2 construct: For ELISA assays, recombinant soluble RANKL and TRAIL, and antibodies directed against these proteins were obtained from PeproTech; purchased PeproTech (Rocky Hill, N.J.)
# T2 sequence (O35235 158-316): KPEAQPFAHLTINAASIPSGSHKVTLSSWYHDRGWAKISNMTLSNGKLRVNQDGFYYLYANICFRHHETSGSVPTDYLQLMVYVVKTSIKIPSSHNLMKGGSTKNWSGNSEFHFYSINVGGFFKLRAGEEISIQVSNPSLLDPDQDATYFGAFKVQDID
# B1: bacterially expressed CRD: cysteine-rich domain of sFRP-1, residues 38-166, expressed in bacteria (protein)
# chain: FQSDIGPYQSGRFYTKPPQCVDIPADLRLCHNVGYKKMVLPNLLEHETMAEVKQQASSWVPLLNKNCHAGTQVFLCSLFAPVCLDRPIYPCRWLCEAVRDSCEPVMQFFGFYWPEMLKCDKFPEGDVCI
# B2: sFRP-2: recombinant mouse sFRP-2 purified from transfected MDCK cells (protein)
# chain: LFLFGQPDFSYKRSNCKPIPANLQLCHGIEYQNMRLPNLLGHETMKEVLEQAGAWIPLVMKQCHPDTKKFLCSLFAPVCLDDLDETIQPCHSLCVQVKDRCAPVMSAFGFPWPDMLECDRFPQDNDLCIPLASSDHLLPATEEAPKVCEACKTKNEDDNDIMETLCKNDFALKIKVKEITYINRDTKIILETKSKTIYKLNGVSERDLKKSVLWLKDSLQCTCEEMNDINAPYLVMGQKQGGELVITSVKRWQKGQREFKRISRSIRKLQC
# B3: sFRP-1: recombinant human secreted Frizzled-related protein-1 (protein, listed as Homo sapiens)
# chain: MGIGRTEGGRRGAALGVLLALGGASGRGLGSEYDYVSFQSDIGPYQSGRFYTKPPQCVDIPADLRLCHNVGYKKMVLPNLLEHETMAEVKQQASSWVPLLNKNCHAGTQVFLCSLFAPVCLDRPIYPCRWLCEAVRDSCEPVMQFFGFYWPEMLKCDKFPEGDVCIAMTPPNATEASKPQGTTVCPPCDNELKSEAIIEHLCASEFALRMKIKEVKKENGDKKIVPKKKKPLKLGPIKKKDLKKLVLYLKNGADCPCHQLDNLSHHFLIMGRKVKSQYLLTAIHKWDKKNKEFKNFMKKMKNHECPTFQSVFK
# How the values were obtained:
# RANKL [1] = molecular target: T1, RANKL; test: ELISA of soluble RANKL binding to wells coated with sFRP-1, sFRP-1 derivatives or sFRP-2; settings: ELISA, coated wells versus BSA
# Method: (§1) ELISA experiments were generally performed as previously described (Uren et al., J. Biol. Chem. 275:4374-4382, 2000), with modifications depending on the sFRP binding partner to be tested. Typically, wells were coated with 0.5 or 1 μg of sFRP-1, blocked with BSA (0.2%, 1%, or 4%) and then incubated with putative binding partner overnight at room temperature. When investigating the binding of peptide/AP chimeras, after aspiration of bacterial broths, wells were washed and incubated with p-nitrophenolphosphate (pNPP). Color development was determined at 405 nm with an ELISA reader. For competition experiments, soluble peptides were preincubated with peptide/AP chimeras in bacterial broth for 30 min at room temperature prior to transfer into ELISA wells coated with sFRP-1 or BSA. When testing RANKL binding to sFRP-1, serial dilutions of soluble RANKL were assayed in replicate. Following overnight incubation at room temperature, RANKL solutions were aspirated and bound RANKL was detected by sequential incubations with primary antibody to RANKL, secondary antibody coupled with AP and pNPP. Similar experimental designs were employed when other TNFα family members were examined for binding to sFRPs, and when sFRP-1 derivatives or sFRP-2 were the binding targets for RANKL.
# (§2) The possibility that sFRP-1 (SEQ ID NO: 3) and RANKL interact directly with each other was tested using an ELISA assay. […] RANKL was then incubated in these wells and in adjacent wells that had only been treated with BSA.
# RAW264.7 cells [2] = test: RANKL-induced osteoclast formation in RAW264.7 cells; assay type: cell-based; settings: RAW264.7+RANKL
# Method: In some instances, experiments were performed either with adult mouse spleen cells or with RAW264.7 cells treated with M-CSF and RANKL as described in Quinn et al., Endocrinology 139:4424-4427, 1998. Where indicated, these assays were conducted in the presence or absence of splenic T cells. T cell fractions were prepared as described in Horwood et al., Journal of Clinical Investigation 101:595-603, 1998.
# (§3) The effect of bacterially expressed CRD was assessed in three different cell culture models of osteoclast formation. These were: (1) bone marrow cells+RANKL+M-CSF, (2) the macrophage/monocyte cell line RAW264.7+RANKL, and (3) RAW264.7+TNFα+TGFβ (Horwood et al., Journal of Immunology 166:4915-4921, 2001; Quinn et al., Journal of Bone and Mineral Research. 16, 1787-1794, 2001).
# RAW264.7 cells [3] = test: RANKL-independent (TNFα-dependent) osteoclast formation in RAW264.7+TNFα+TGFβ; assay type: cell-based
# Method: The effect of sFRP-1 was assessed upon a RANKL-independent method of osteoclast formation using the monocyte/macrophage cell line RAW264.7 (Quinn et al., Journal of Bone and Mineral Research. 16, 1787-1794, 2001) and was compared with that of osteoprotegerin (FIG. 14).
# as §3
# bone marrow cells = test: Osteoclast formation in bone marrow cells+RANKL+M-CSF; assay type: cell-based
# Method: as §3
# TRAIL = molecular target: T3, TRAIL (Homo sapiens, UniProt P50591); test: ELISA of TRAIL binding to sFRP-2; settings: ELISA format
# T3 construct: For ELISA assays, recombinant soluble RANKL and TRAIL, and antibodies directed against these proteins were obtained from PeproTech; purchased PeproTech (Rocky Hill, N.J.)
# T3 sequence (P50591 39-281 limits assumed, species assumed): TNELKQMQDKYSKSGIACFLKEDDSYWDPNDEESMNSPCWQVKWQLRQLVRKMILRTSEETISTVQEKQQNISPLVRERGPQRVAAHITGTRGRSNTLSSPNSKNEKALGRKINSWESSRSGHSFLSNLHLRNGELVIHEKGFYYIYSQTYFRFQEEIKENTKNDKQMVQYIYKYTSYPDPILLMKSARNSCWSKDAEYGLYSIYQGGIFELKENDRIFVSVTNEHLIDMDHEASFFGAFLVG
# Method: as §1, with “RANKL. […]” for “RANKL.”
# RANKL [4] = molecular target: T2, RANKL; test: ELISA of soluble RANKL binding to wells coated with sFRP-1, sFRP-1 derivatives or sFRP-2; settings: RANKL variant with amino-terminal sequence beginning with residue 158
# Method: as §1, §2
# [5] = test system: co-cultures of primary osteoblasts and bone marrow cells; test: Osteoclastogenesis co-culture of primary osteoblasts and bone marrow cells (TRAP+ cells); assay type: cell-based, mouse; settings: vitamin D3 (10^-8 M) and PGE2 (10^-7 M)
# Method: Osteoblastic cells were prepared from the calvaria of newborn mice by digestion with 0.1% collagenase (Worthington Biochemical Co., Freefold, […]) and 0.2% dispase (Godo Shusei, Tokyo, Japan). Bone marrow and spleen cells were obtained from adult and from newborn mice, respectively (Udagawa et al., J. Exp. Med. 182: 1461-1468, 1995). Osteoblastic cells were co-cultured with bone marrow or spleen cells as described previously (Udagawa et al., J. Exp. Med. 182: 1461-1468, 1995). In short, primary osteoblastic cells (2×10^4/well) and nucleated spleen cells (1×10^6/well) or marrow cells (5×10^5/well) were co-cultured in 48-well plates (Corning Glass Inc., Corning, N.Y.) with 0.4 mL of α-MEM (GIBCO/BRL, Grand Island, N.Y.) containing 10% fetal bovine serum (Cytosystems, Castle Hill, NSW, Australia) in the presence of test chemicals. Cultures were incubated in quadruplicate and cells were replenished on day 3 with fresh medium. Osteoclast formation was evaluated after culturing for 6-7 days. Adherent cells were fixed and stained for tartrate-resistant acid phosphatase (TRAP), and the number of TRAP-positive osteoclasts was scored as described (Udagawa et al., J. Exp. Med. 182: 1461-1468, 1995). For TRAP staining, adherent cells were fixed with 4% formaldehyde in PBS for 3 minutes. After treatment with ethanol-acetone (50/50, vol/vol) for 1 minute, the well surface was air dried and incubated for 10 minutes at room temperature in an acetate buffer (0.1 M sodium acetate, pH 5.0) containing 0.01% naphthol AS-MX phosphate (Sigma) as a substrate and 0.03% red violet LB salt (Sigma) as a stain for the reaction product in the presence of 50 mM sodium tartrate. TRAP-positive cells appeared dark red, and those with three or more nuclei were scored as multinucleated and considered as osteoclasts. […] CTR expression was determined either by autoradiography with ^125I-salmon calcitonin or by immunohistochemical localization using an array of antibodies we have developed as described by Quinn et al., Bone 25:1-8, 1999.
# TNFα = TNFα (Homo sapiens, UniProt P01375); test: ELISA of TNFα binding to sFRP-1; settings: ELISA format
# Sequence of TNFα (P01375 77-233 limits assumed, species assumed): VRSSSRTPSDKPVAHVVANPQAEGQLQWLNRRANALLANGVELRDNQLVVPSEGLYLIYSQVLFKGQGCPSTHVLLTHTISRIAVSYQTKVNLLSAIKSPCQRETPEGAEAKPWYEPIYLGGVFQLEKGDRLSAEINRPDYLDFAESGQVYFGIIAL
# Method: as §1, with “RANKL. […]” for “RANKL.”
Molecule,binding to RANKL (RANKL [1]),effect on osteoclast formation (RAW264.7 cells [2]),"effect on osteoclast formation (RAW264.7 cells [3]; RAW264.7+TNFα+TGFβ, RANKL-independent)",effect on osteoclast formation (bone marrow cells),binding to TRAIL (TRAIL),binding to a derivative of RANKL lacking the A-C2 motif (RANKL [4]),reduction of the number of multinucleated TRAP+ cells ([5]; 300 ng/mL) [%],reduction of the number of multinucleated TRAP+ cells ([5]; 1.6 ug/mL) [%],effect on osteoclast formation [5],effect on TNFα-dependent osteoclast formation (RAW264.7 cells [3]; present during the first three days of culture),binding to TNFα (TNFα)
B1,strong,mimicked the action of full-length sFRP-1 and with similar potency,mimicked the action of full-length sFRP-1 and with similar potency,mimicked the action of full-length sFRP-1 and with similar potency,–,–,–,–,–,–,–
B2,can bind,–,–,–,can bind,–,–,–,–,–,–
B3,bound specifically,–,–,–,–,observed binding,50,95,dose-dependent inhibitory activity,inhibited,can bind
